From US10456465B2, “Compositions, kits, and methods for the diagnosis prognosis, monitoring, treatment and modulation of post-transplant lymphoproliferative disorders and hypoxia associated angiogenesis disorders using galectin-1” (Dana-Farber Cancer Institute, Inc., priority 2009, dated 2019)

B1: anti-Gal1 monoclonal antibody 8F4F8G7 (antibody, V domains shown)
VH: EVQLQQSVAEFVRPGASVRLSCTASGFNIKNTYIHWVRQRPEQGLEWIGKIDPANGNTKYVPEFQGKATMTADTSSNTVYLHLSSLTSEDTAIYYCVDGYYGWYFAVWGTGTTVTVSS
VL: QAVVTQESALTTSPGETVTLTCRSSTGAVTTSNYANWVQEKPDHLFTGLIGATNNRAPGVPARFSGSLIGDKAVLTITGAQTEDEAIYFCALWYRNHFIFGSGTKVTVL
notes: Murine hybridoma mAb (deposit PTA-10535), lambda light chain; also called 14-19 8F4-F8-G7; clone 8F4.8F.67

Legend:
[1] = target: T1, Gal1 (Homo sapiens, UniProt P09382); test: Binding of 488-Gal1 to HUVEC
T1 construct: made in house
T1 sequence (P09382 whole entry): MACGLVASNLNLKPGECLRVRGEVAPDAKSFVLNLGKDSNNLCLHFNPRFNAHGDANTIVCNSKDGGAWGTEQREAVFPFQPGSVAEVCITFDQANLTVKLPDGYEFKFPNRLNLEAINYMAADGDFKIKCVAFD
Description: For glycophenotyping, ECs were incubated with biotinylated L-PHA, LEL, SNA, MAL II, PNA and HPA (all from Vector). Recombinant Gal1 was purified as described in Ilarregui et al. (2009) Nat Immunol 10, 981-991. For binding assays, ECs were incubated for 1 h at 4° C. with dyLight 488-labeled galectins in the absence or presence of lactose, sucrose, anti-Gal1 or isotype control mAb or following transfection with GnT5, GCNT1 or scrambled siRNA. Cells were analyzed on a FACSAria (BD Biosciences). For segregation, ECs were treated with Gal1 for 1 h, fixed and incubated for 1 h with anti-human VEGFR2 antibody (55B11; Cell Signaling) as described in Ilarregui et al. (2009) Nat Immunol 10, 981-991. Cells were analyzed on a Nikon laser confocal microscope (Eclipse E800).
DyLight 488-conjugated Gal1 (488-Gal1) was obtained using DyLight labeling kit (Thermo Scientific). Inhibitors of Jak2-STAT3 (AG490; 5 μM), Jnk-SAP (SP600125; 20 μM), p38 (SB202190; 10 μM), HIF-1α (3 μM) and O-glycosylation (benzyl-α-Ga1NAc; 2 mM) were from Calbiochem. Inhibitors of Erk1/2 (U0126; 5 μM), PI(3)K-Akt (Ly294002; 2 μM) and NF-κB (BAY 11-7082; 1 μM), ROS (N-acetyl-cysteine; NAC), N-glycosylation (swainsonine; 3 μM), lactose or sucrose (30 mM) were from Sigma. PNGase F (25 U/μg protein) was from New England Biolabs. Recombinant cytokines including IL-10 (50 ng/ml), IL-17 (5 ng/ml), TGF-β1 (3 ng/ml), IFN-γ (50 ng/ml), VEGF (20 ng/ml), bFGF (10 ng/ml) were from R&D. TNF (20 ng/ml) was from Sigma. Biotinylated lectins, including L-PHA (2 μg/ml), LEL (1 μg/ml), SNA (5 μg/ml), MAL II (10 μg/ml), PNA (10 μg/ml) and HPA (10 μg/ml) were purchased from Vector Labs and incubated in buffer containing 150 mM NaCl, 10 mM HEPES and 1% BSA (Sigma). ON-TARGETplus SMART siRNA pools against GnT5, GCNT1, VEGFR2, NRP-1, VEGF, HIF-1α and scrambled were obtained from Dharmacon. Transfections were performed by Lipofectamine-RNAiMAX (Invitrogen) following manufacturer's directions. Recombinant Gal3 and Gal8 were purified as described in Acosta-Rodriguez et al. (2004) J Immunol 172, 493-502 and Cardenas Delgado et al. (2010) FASEB J [Epub ahead of print].

[2] = tested on: HUVEC; test: HUVEC proliferation ([3H]thymidine incorporation); format: cell-based, human
Description: (§1) HUVEC transfected or not with specific siRNA or pre-incubated with signaling pathway inhibitors were exposed to VEGF or Gal1 with or without lactose, sucrose, 8F4F8G7 mAb or control isotype (IgG1κ) or specific antibodies for VEGFR1 (AP-MAB0702; Abcam), VEGFR2 (AF357; R&D), VEGFR3 (AB89501; Abcam) or VEGF (MAB293; R&D). Cells were processed for proliferation, migration, invasion and tube formation assays. Tumor-associated blood vessels were identified by flow cytometry using Alexa Fluor 647-conjugated anti-CD34 antibody (RAM34; eBioscience).
For proliferation assays, HUVEC that were transfected or not with specific siRNA and cultured in complete M199 medium were trypsinized, harvested and seeded in 96-well microtiter plates (1×10^3 cells/well). Cells were pre-incubated for 1 hour at 37° C. with lactose, sucrose or signaling pathway inhibitors and then exposed to Gal1. After 24 hours, cells were incubated for an additional 24 hours in the presence of 0.8 μCi [^3H]-thymidine (NEN Dupont). Cells were then harvested and radioactivity was measured in a 1414 Liquid Scintillation Counter (Perkin Elmer).

[3] = tested on: HUVEC; test: HUVEC migration (transwell); format: cell-based, human
Description: as §1
(§2) The formation of capillary-like tubular structures was assessed in Matrigel-coated plates essentially as described in Albini et al. (2001), Cancer Res 61, 8171-8178. In brief, HUVEC (3×10^4 cells/ml) transfected or not with specific siRNA or pre-incubated with signaling pathway inhibitors were seeded on Matrigel with our without Gal1 (0.1 to 3 μM) or VEGF (20 ng/ml) with or without lactose, sucrose, 8F4F8G7 mAb (0.5 μM) or isotype control (IgG1K) or blocking antibodies specific for VEGFR1 (5 μg/ml), VEGFR2 (2 μg/ml), VEGFR3 (10 μg/ml) or VEGF (10 μg/ml). Cells were incubated at 37° C. for periods ranging from 0 to 24 h and were visualized by phase-contrast microscopy. In another set of experiments, conditioned medium from hypoxic or normoxic KS cells infected or not with a retroviral vector containing Gal1 shRNA was assessed on HUVEC transfected or not with GnT5, GCNT1 or scr siRNA (100 nM). Capillary-like tubular structures were scored by counting the number of tubules (closed areas) per well in a phase-contrast microscope (Nikon E-100). For migration assays, HUVEC (4×10^4/well) transfected or not with specific siRNA were resuspended in M199 medium supplemented with 1% FCS. Cells were placed into the top chamber of the insert while the bottom well was filled with Gal1 or VEGF in the absence or presence of lactose, sucrose, 8F4F8G7 mAb or isotype control. After 24 hours, inserts were stained with crystal violet (Sigma) and analyzed in an inverted microscope. For each filter, 4 images were collected and cells were counted with the ImageJ software v1.34 (NIH).

[4] = tested on: HUVEC; test: HUVEC capillary tube formation on Matrigel; format: cell-based, human
Description: as §1, §2

[5] = target: T2, recombinant human glutathione-s-transferase (GST)-Gal1 (human, UniProt P09382 1-135); test: ELISA on recombinant protein
T2 construct: Immunogen and ELISA antigen; not shown: glutathione-S-transferase (GST) tag
T2 sequence (P09382 whole entry): as above
Source text: (§3) Anti-human Gal1 mAbs were obtained by immunizing B6-Cg-Tg (BCL2)22Wehi-J mice (Jackson Labs, Bar Harbor, Me.) with recombinant human glutathione-s-transferase (GST)-Gal1, generating anti-Gal1 hybridomas with standard methods and purifying the Gal1 monoclonal antibody and class-matched IgG2bλ, control by affinity chromatography. […] A previously described anti-Gal1 polyclonal antibody (Juszczynski et al. (2007) *Proc Natl Acad Sci USA* 104:13134-9) was used as a positive control in all assays.

[6] = target: T3, recombinant His-Gal1 (human, UniProt P09382 1-135, limits assumed); test: ELISA on recombinant protein
T3 construct: not shown: His tag
T3 sequence (P09382 whole entry): as above
Source text: as §3

Row | Molecule | binding of fluorescently-labeled Gal1 to ECs ([1]; flow cytometry) | EC proliferation ([2]; HUVEC treated with Gal1) | EC migration ([3]; HUVEC treated with Gal1) | formation of three-dimensional tubular networks ([4]; HUVEC treated with Gal1) | binding result [5] | binding result [6] | effect on binding of Gal1 to ECs ([1]; lactose/sucrose 30 mM, swainsonine 3 μM, benzyl-α-GalNAc 2 mM, mAb 0.5 μM) | effect on Gal1-induced EC proliferation ([2]; induced by Gal1) | effect on Gal1-induced EC migration ([3]; induced by Gal1) | effect on EC migration in the absence of exogenous Gal1 ([3]; no exogenous Gal1) | effect on Gal1-induced capillary tube formation ([4]; induced by Gal1) | effect on tube formation in the absence of exogenous Gal1 ([4]; no exogenous Gal1)
1 | rGal1: recombinant human galectin-1 | bound to ECs in a dose- and carbohydrate-dependent fashion | elicited | elicited | at levels similar to those attained by VEGF |  |  |  |  |  |  |  | 
2 | B1 |  |  |  |  | binds | binds | prevented | prevent | prevent | did not alter | prevent | did not alter
